Consider 5 molecules from US20030224992A1, “Transcription factor modulators and uses thereof” (Praecis Pharmaceuticals Inc., priority 2002, published 2003).

Where two headings read alike, the source gives them in different places.

Data set [1] has as its target T1, Androgen receptor DNA binding domain (GST-ARDBD) (UniProt P10275 P10275:560-632). Put plainly: FP; scrambled MPS control, competition with FAM-ARE. The following applies: tags: GST fusion; chain copies: 2.
Data set [2] has as its target T1, Androgen receptor DNA binding domain …. Put plainly: FP; labelled probe, 1 nM with 50 nM GST-ARDBD. The following applies: tags: GST fusion; chain copies: 2; label: 5'-FAM on top strand.
Data set [3] shares this target. Put plainly: FP; competition with 1 nM FAM-ARE, 50 nM GST-ARDBD; room temperature. Conditions: tags: GST fusion; chain copies: 2.
Data set [4] has the same target. The data set is described as follows: FP; scrambled control, competition with FAM-ARE. Conditions: tags: GST fusion; chain copies: 2.
Data set [5] has the same target. The following applies: tags: GST fusion; chain copies: 2.

T1 sequence (P10275 560-632, one chain of several): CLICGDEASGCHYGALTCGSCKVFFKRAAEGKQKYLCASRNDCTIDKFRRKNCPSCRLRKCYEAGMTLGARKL

B1: AREsc-MPS scrambled (dsDNA)
DNA 1: AGTCTACGAGTGGGGTTCTTTTTTA
DNA 2: TAAAAAAGAACCCCACTCGTAGACT
modifications: membrane permeable peptide Ac-…-NH2 conjugate
Take B1: in data set [1], the binding result is recorded as “no binding”.

B2: FAM-ARE duplex (dsDNA)
DNA 1: AGTCTGGTACAGGGTGTTCTTTTTA
DNA 2: TAAAAAGAACACCCTGTACCAGACT
With B2, the binding result in data set [2] is reported as “binds”.

B3: ARE-MPS duplex (dsDNA)
DNA 1: AGTCTGGTACAGGGTGTTCTTTTTA
DNA 2: TAAAAAGAACACCCTGTACCAGACT
modifications: membrane permeable peptide Ac-…-NH2 conjugated at 5' of top strand
Consider B3, for which the binding result in data set [3] is “binds”.

B4: AREsc scrambled (dsDNA)
DNA 1: AGTCTACGAGTGGGGTTCTTTTTTA
DNA 2: TAAAAAAGAACCCCACTCGTAGACT
As to B4, in data set [4], the binding result is “no binding”.

B5: ARE duplex (dsDNA)
DNA 1: AGTCTGGTACAGGGTGTTCTTTTTA
DNA 2: TAAAAAGAACACCCTGTACCAGACT
For the molecule B5, the binding result in data set [5] is given as “binds”.
